Where a chain is given by its changes, count along the chain named. Names may count otherwise. Ends that are not written are not given here. * marks the point of attachment. Biotin = O=C1N[C@H]2[C@H](CS[C@H]2CCCCC(=O)*)N1
Assays:
Assay in all cases: SPR
[1] = biological target: T1, N-terminally biotinylated synthetic FLAG peptide, 5-residue variant (DYKDD) (synthetic construct)
T1 chain: Biotin-DYKDD

[2] = biological target: T2, N-terminally biotinylated synthetic FLAG peptide, 4-residue variant (DYKD) (synthetic construct)
T2 chain: Biotin-DYKD

[3] = biological target: T3, N-terminally biotinylated synthetic FLAG peptide, truncated, Asp5Glu (DYKDED) (synthetic construct, point mutant)
T3 chain: Biotin-DYKDED

[4] = biological target: T4, N-terminally biotinylated synthetic FLAG peptide, six-residue truncated version (DYKDDD) (synthetic construct)
T4 chain: Biotin-DYKDDD

[5] = biological target: T5, N-terminally biotinylated synthetic FLAG peptide, wildtype (DYKDDDDK) (synthetic construct, not fully specified (N-terminus))
T5 chain: DYKDDDDK

[6] = biological target: T6, N-terminally biotinylated synthetic FLAG peptide, Asp5Glu (DYKDEDDK) (synthetic construct, point mutant, not fully specified (N-terminus))
T6 chain: DYKDEDDK

[7] = biological target: T1, N-terminally biotinylated synthetic …
[8] = biological target: T7, N-terminally biotinylated synthetic FLAG peptide truncated by one C-terminal residue (DYKDDDD) (synthetic construct)
T7 chain: Biotin-DYKDDDD

[9] = biological target: T2, N-terminally biotinylated synthetic …
[10] = biological target: T3, N-terminally biotinylated synthetic …
[11] = biological target: T4, N-terminally biotinylated synthetic …
[12] = biological target: T5, N-terminally biotinylated synthetic …
[13] = biological target: T6, N-terminally biotinylated synthetic …
[14] = biological target: T7, N-terminally biotinylated synthetic …

B1: anti-FLAG M2 IgG (wildtype, recombinant) (antibody, V domains shown)
VH: QVQLQQSAAELARPGASVKMSCKASGYSFTTYTIHWVKQRPGQGLEWIGYINPSSGYAAYNQNFKDETTLTADPSSSTAYMELNSLTSEDSAVYYCAREKFYGYDYWGQGATLTVSS
VL: DVLMTQIPLSLPVSLGDQASISCRSSQSIVHRNGNTYLEWYLLKPGQSPKLLIYKVSNRFSGVPDRFSGSGSGTDFTLKISRVEAEDLGVYYCFQGSHVPYTFGGGTKLEIR
KD, first site (two-site binding model) [1]: 154 ± 100 nM | KD, first site (two-site binding model) [2]: 52.9 ± 22.1 nM | KD, first site (two-site binding model) [3]: 10.2 ± 0.48 nM | KD, first site (two-site binding model) [4]: 9.72 ± 2.6 nM | KD, first site (two-site binding model) [5]: 2.95 ± 0.31 nM | KD, first site (two-site binding model) [6]: 2.23 ± 0.25 nM

B2: anti-FLAG M2 Fab, heavy chain K100R (Fab, V domains shown)
VH: B1 VH with K100R
VL: B1 VL
fold drop in affinity against the wildtype Fab [7]: ~20 fold | fold drop in affinity against the wildtype Fab [8]: ~20 fold | fold drop in affinity against the wildtype Fab [9]: ~20 fold | fold drop in affinity against the wildtype Fab [10]: ~20 fold | fold drop in affinity against the wildtype Fab [11]: ~20 fold | fold drop in affinity against the wildtype Fab [12]: ~20 fold | fold drop in affinity against the wildtype Fab [13]: ~20 fold

B3: anti-FLAG M2 Fab (wildtype, recombinant) (Fab, V domains shown)
VH: B1 VH
VL: B1 VL
Kd [12]: 1910 ± 240 nM | Kd [13]: 1780 ± 130 nM

B4: anti-FLAG M2 IgG, heavy chain K100R (antibody, V domains shown)
VH: B1 VH with K100R
VL: B1 VL
fold drop in affinity against the wildtype IgG [1]: ~20 fold | fold drop in affinity against the wildtype IgG [14]: ~20 fold | fold drop in affinity against the wildtype IgG [2]: ~20 fold | fold drop in affinity against the wildtype IgG [3]: ~20 fold | fold drop in affinity against the wildtype IgG [4]: ~20 fold | fold drop in affinity against the wildtype IgG [5]: ~20 fold | fold drop in affinity against the wildtype IgG [6]: ~20 fold
